Data published in patent US7932226B2, “NFκB transcriptional activity inhibitory agent and anti-inflammatory agent and a steroid action enhancing agent” (St. Marianna University School of Medicine, priority 2004, dated 2011).

Legend:
[1] = tested on: transcriptional activity of NFκB; assay: NFκB-dependent luciferase assay in transfected COS-7 cells, TNFα-induced; type: cell-based
Description: COS-7 cells were plated into a 6-well plate (Falcon, catalog number: 35-3046) at 3.5 to 3.8×10^5 cells per well and cultured in a DMEM supplemented with 10% 56° C.-inactivated FBS (fetal bovine serum; HyClone, catalog number: SH30070.03) under the conditions of 5% CO2 and 37° C. After 18 hours, the medium was replaced with a DMEM containing charcoal-dextran treated (C/D treatment) FBS (C/D-FBS, HyClone, catalog number: SH30068.03). Each of the plasmids constructed in Example 2 was mixed as shown in Table 1 and each sample was prepared to be 4.12 μg and each was mixed with TransFast (product name) reagent (12.3 μl) and the mixture was incubated for 10 to 15 minutes. After the medium in each well was replaced, each plasmid DNA was added to the respective wells according to the amount shown in Table 1 and incubation was carried out for 1 hour, thus each DNA was transfected into COS-7 cells. The transfection efficiency was 34%. To the cells into which DNA was transfected as described above, after 24 hours, an inflammatory cytokine (TNFα, Sigma) at a final concentration of 1 ng/ml and a steroid agent (triamcinolone acetonide: TA, Sigma) at a final concentration of 120 nM were added. Further, after an additional 24 hours, luciferase activities in the cells were assayed using Dual Luciferase Assay System (Promega) by a luminometer (Turner BioSystems TD-20/20, Promega). The results are shown in FIG. 1, In FIG. 1, the luciferase activities indicating the transcriptional activity of NFκB is indicated on the vertical axis. The closed circles show the case where only TNFα was added, the closed triangles show the case where both TNFα and TA were added, the open triangles show the case where only TA was added and the open circles show the case where neither of TNFα nor TA was added, respectively.

[2] = MTI-II peptide administration experiment (behaviour and autopsy observation); type: in vivo; details: 10 mg/kg intraperitoneal, ICR mice
Description: MTI-II of SEQ ID NO: 1 (Gene Bank Accession No. M24398) was purified in accordance with the purification method described in the document (Eur. J. Biochem., (2000), 267, 155-162). It was dissolved in physiological saline at a concentration of 1.0 mg/ml and intraperitoneally administered to 5 male (an average body weight of 28.4 g) and 5 female (an average body weight of 25.0 g) ICR mice at 5 weeks of age at 10 mg/kg of body weight. As a control, physiological saline was administered to 2 male and 2 female ICR mice of the same age. […] At 24 hours after the administration, they were sacrificed and autopsy was carried out and the swelling of the liver, kidney, spleen, small intestine, large intestine and thymus and the swelling of the blood vessels in the abdominal cavity were observed by the naked eye. As a result, behavioral anomaly and the swelling of the liver, kidney, spleen, small intestine, large intestine, thymus and blood vessels were not observed in all specimens.

[3] = tested on: transcriptional activity of NFκB; assay: NFκB luciferase assay in the presence of coactivator p300; type: cell-based
Description: Then, in order to confirm the action site of MTI-II, the effect of MTI-II was investigated when a coactivator p300, which acts on the transcriptional activity of NFκB, was expressed.
A coactivator p300 expression plasmid (pCMVβ-p300) was purchased from Upstate. DNA transfection was carried out in the same manner as in Example 3 except that the amount of DNA was each 2.0 μg and the amount of pTri-NC or pTri-MTI was 1.0 μg. The NFκB transcriptional activity assay was carried out in the same manner as in Example 4.

[4] = tested on: transcriptional activity of NFκB; assay: NFκB luciferase assay in HeLa cells with added His-tag-TAT-MTI-II protein; type: cell-based; details: protein 30-300 μg per well added 6 hours before TNFα 1 ng/ml
Description: HeLa cells were plated into a 6-well plate at 2.0×10^5 cells per well and cultured in a DMEM (HyClone) supplemented with 10% FBS (fetal bovine serum) for 18 hours. Thereafter, the medium was replaced with a medium containing charcoal-dextran treated (C/D treatment) FBS (C/D-FBS). Further, after an additional 24 hours, each plasmid DNA blended in accordance with the amount shown in the following Table 2 was added to the respective wells, and these HeLa cells were transfected with NFκB-Luc gene.
At 24 hours after the transfection, to the HeLa cells in each well, the His-tag-TAT-MTI-II fusion protein prepared in Example 7 was added according to the amount shown in Table 3, and 6 hours thereafter, an inflammatory cytokine (TNFα, Sigma) was further added thereto in an amount to give a concentration of 1 ng/ml. After 24 hours, in the same manner as in Example 4, luciferase activities in the cells were assayed using Dual Luciferase Assay System (Promega).

[5] = OVA-sensitized rabbit knee joint inflammation model; type: in vivo, New Zealand White rabbits; details: rabbits, 0.4 mg/ml in PBS into the right knee joint, 10 administrations in 14 days
Description: For primary sensitization, ovalbumin (OVA)+Freund's complete adjuvant (FCA) was intradermally injected once in the dorsal area of three New Zealand White rabbits. After 2 weeks, for secondary sensitization, OVA+FCA was intradermally administered once in the dorsal area. Further, for challenge administration, at 5 days after the secondary sensitization, OVA was administered once into the right knee joint. A His-tag-TAT-MTI-II solution (at 0.4 mg/ml in PBS solution) was administered into the right knee joint every other day starting from one day before the challenge administration of OVA. Incidentally, during 5 days from the next day of the challenge administration of OVA, the His-tag-TAT-MTI-II solution was administered once daily. The administration period was 14 days (number of administration: 10 times in total), and in a control group, PBS was administered into the right knee joint. An anti-inflammatory action was examined based on the blood sedimentation rate measurement and the pathological specimens of both knee joints.

For TNFα [reference compound], the “luciferase activity (transcriptional activity of NFκB) versus no TNFα” value ([1]; TNFα 1 ng/ml only, MTI-II 0 μg) was “about 10 times”.

B1: MTI-II: 102 amino acid polypeptide (SEQ ID NO: 2), same sequence as parathymosin; encoded by SEQ ID NO: 1 (protein, listed as Homo sapiens)
chain: MSEKSVEAAAELSAKDLKEKKDKVEEKAGRKERKKEVVEEEENGAEEEEEETAEDGEDDDEGDEEDEEEEEEEDEGPVRKRTAEEEDEADPKRQKTENGASA
With B1 the “swelling of the liver, kidney, spleen, small intestine, large intestine, thymus and blood vessels” value ([2]; autopsy at 24 hours, naked eye) was “not observed”, the behavioral anomaly ([2]; observed for 24 hours) was “not observed” and the “transcriptional activity of NFκB” value ([1]; TNFα 1 ng/ml, MTI-II expressed (0-3.0 μg vector)) was “inhibited depending on the amount of MTI-II”. For the same molecule, the NFκB transcriptional activity ([1]; TNFα, simultaneous use of MTI-II and the steroid agent (TA 120 nM)) was “inhibited further more”, the “transcriptional activity of NFκB compared with the case where MTI-II was not expressed” value ([3]; MTI-II expressed together with p300, TNFα (pTri-MTI 1.0 μg)) was “inhibited to about half or more” and the “transcriptional activity of NFκB compared with the case where MTI-II was not expressed” value ([3]; MTI-II expressed together with p300, TNFα, steroid agent further added) was “inhibited to about half or more”. The “transcriptional activity of NFκB compared with the absence of the coactivator” value ([3]; MTI-II with p300, TNFα, used together with the steroid agent) was “inhibited to about half”.

B2: His-tag-TAT-MTI-II: His-tag-TAT-MTI-II fusion protein (SEQ ID NO: 11) expressed in E. coli (protein)
chain: MAHHHHHHSLVPRGSRRRQRRKKRGLQMSEKSVEAAAELSAKDLKEKKDKVEEKAGRKERKKEVVEEEENGAEEEEEETAEDGEDDDEGDEEDEEEEEEEDEGPVRKRTAEEEDEADPKRQKTENGASA
modifications: HisTag-TAT-MTI-II
With B2 the “transcriptional activity of NFκB” value [4] was “inhibited depending on the amount of TAT-MTI-II” and the “anti-inflammatory action (blood sedimentation rate, pathological specimens of knee joints)” value [5] was “anti-inflammatory effect”.
